Here are results for two molecules from patent US20250115678A1 (AstraZeneca / MedImmune, published 2025).

Assay [1] deals with T1, LRRC15 on LRRC15pos tumour cell lines (Saos-2 WT, RPMI-7951 WT) (UniProt Q8TF66 22-581, limits assumed).
T1 construct: whole, on cells; also called leucine rich repeat containing 15
T1 sequence (looked up): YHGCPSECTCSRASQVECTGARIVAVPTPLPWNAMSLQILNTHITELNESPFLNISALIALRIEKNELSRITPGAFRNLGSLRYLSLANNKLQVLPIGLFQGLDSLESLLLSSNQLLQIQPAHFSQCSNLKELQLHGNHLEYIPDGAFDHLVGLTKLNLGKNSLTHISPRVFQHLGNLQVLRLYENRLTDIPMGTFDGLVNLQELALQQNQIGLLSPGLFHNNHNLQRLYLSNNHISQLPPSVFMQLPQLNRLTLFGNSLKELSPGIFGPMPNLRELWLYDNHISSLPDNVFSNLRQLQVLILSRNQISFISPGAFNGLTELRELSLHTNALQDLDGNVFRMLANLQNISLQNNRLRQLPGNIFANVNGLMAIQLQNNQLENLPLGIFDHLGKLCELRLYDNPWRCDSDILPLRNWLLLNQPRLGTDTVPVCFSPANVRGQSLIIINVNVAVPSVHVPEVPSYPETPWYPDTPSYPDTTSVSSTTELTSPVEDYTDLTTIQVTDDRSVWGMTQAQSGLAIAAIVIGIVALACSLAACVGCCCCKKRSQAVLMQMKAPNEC
In words: Flow cytometry on Saos-2 WT cells (LRRC15pos), detected with anti-human Fc Alexa Fluor 647 (MFI).

Assay [2] addresses T1, LRRC15 on LRRC15pos tumour cell lines …. In words: Flow cytometry on RPMI-7951 WT cells (LRRC15pos), detected with anti-human Fc Alexa Fluor 647 (MFI). A general note: A flow cytometer gives signals particle by particle.
Assay [3] addresses T2, GPC3 on human hepatoma cells (Hep3B, HepG2) (human, UniProt P51654 25-554).
T2 construct: whole, on cells; also called Glypican-3
In words: flow cytometry on HepG2 cells, goat anti-human-IgG-APC; HepG2 cells. As for the experimental part:
(§1) Cell bindings were measured by flow cytometry.
as §1

Assay [4] concerns the target T3, recombinant cynomolgus monkey CD8ab (cynomolgus monkey).
T3 construct: Soluble form of the CD8 alpha/beta heterodimer; construct not described
In words: SPR (Biacore), soluble antigen, mean ± SD of three experiments. As for the experimental part: (§2) KD were calculated as the ratio of koff/kₒₙ from a non-linear fit of the data. Values are presented as mean±standard deviation (SD) of three experiments.
Background: In SPR one partner is held on a chip, and binding of the other changes the refractive index at the surface.

For assay [5], the target named is T4, soluble recombinant human GPC3 protein (human, UniProt P51654 25-559, biotinylated in the biolayer interferometry assay).
T4 construct: also called GPC3 human
T4 sequence (P51654 25-559 limits assumed): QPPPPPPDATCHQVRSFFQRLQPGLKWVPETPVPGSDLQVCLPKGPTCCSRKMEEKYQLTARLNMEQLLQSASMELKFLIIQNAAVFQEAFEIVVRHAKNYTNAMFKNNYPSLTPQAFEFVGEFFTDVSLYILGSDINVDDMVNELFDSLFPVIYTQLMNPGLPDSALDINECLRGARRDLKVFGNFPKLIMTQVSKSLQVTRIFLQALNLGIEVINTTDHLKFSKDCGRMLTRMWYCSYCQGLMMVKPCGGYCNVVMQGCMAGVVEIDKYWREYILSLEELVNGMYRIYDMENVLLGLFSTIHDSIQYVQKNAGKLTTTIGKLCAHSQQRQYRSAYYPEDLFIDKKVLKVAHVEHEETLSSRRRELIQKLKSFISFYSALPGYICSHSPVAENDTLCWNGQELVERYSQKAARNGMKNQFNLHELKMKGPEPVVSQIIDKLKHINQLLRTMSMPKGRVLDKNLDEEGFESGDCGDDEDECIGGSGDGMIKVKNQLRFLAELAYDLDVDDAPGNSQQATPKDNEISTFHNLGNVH
The description is as above. As for the experimental part:
as §2

Assay [6] addresses recombinant cynomolgus monkey GPC3 (cynomolgus monkey, UniProt A0A2K5VK50 24-558). The assay is described as above. As for the experimental part: as §2
In the next assay the target is T5, recombinant human CD8ab (human, UniProt P01732 22-182; P10966 22-170).
T5 construct: Soluble form of the CD8 alpha/beta heterodimer; construct not described
T5 sequence (P01732 22-182, chain 1 of 2): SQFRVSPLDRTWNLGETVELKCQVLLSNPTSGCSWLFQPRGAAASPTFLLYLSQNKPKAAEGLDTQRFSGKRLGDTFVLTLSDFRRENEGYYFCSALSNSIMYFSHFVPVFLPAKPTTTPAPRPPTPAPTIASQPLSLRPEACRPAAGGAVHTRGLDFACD
T5 sequence (P10966 22-170, chain 2 of 2): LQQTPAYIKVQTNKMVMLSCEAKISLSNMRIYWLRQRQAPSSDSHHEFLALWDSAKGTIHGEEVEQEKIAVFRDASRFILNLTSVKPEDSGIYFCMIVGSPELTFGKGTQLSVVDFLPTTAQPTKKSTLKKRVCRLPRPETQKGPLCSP
The description is as above. As for the experimental part: as §2

The target of assay [7] is T2, GPC3 on human hepatoma cells (Hep3B, …). Kind of assay: flow cytometry on Hep3B cells, goat anti-human-IgG-APC; Hep3B cells. As for the experimental part:
as §1, §1

T2 sequence (P51654 25-554 limits assumed): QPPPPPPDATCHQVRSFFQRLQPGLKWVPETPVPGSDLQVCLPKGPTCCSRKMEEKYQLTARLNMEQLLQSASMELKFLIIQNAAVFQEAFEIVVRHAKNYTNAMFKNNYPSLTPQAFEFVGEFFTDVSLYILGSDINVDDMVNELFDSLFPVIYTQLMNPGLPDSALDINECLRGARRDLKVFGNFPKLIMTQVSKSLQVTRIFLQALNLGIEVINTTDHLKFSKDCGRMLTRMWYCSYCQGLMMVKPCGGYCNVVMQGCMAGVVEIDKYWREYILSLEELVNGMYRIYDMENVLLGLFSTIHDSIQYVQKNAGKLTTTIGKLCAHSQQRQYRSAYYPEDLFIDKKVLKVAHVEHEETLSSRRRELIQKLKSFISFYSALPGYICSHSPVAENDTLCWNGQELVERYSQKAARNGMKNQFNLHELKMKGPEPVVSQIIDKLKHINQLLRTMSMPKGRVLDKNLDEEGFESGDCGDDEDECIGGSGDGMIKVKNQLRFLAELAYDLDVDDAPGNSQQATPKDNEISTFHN

B1: LRC150016 (other)
light: DIQMTQSPSSLSASVGDRVTITCRASQDISNYLNWYQQKPGGAVKFLIYYTSRLHSGVPSRFSGSGSGTDYTLTISSLQPEDFATYFCQQGEALPWTFGGGTKVEIKRTVAAPSVFIFPPSDEQLKSGTASVVCLLNNFYPREAKVQWKVDNALQSGNSQESVTEQDSKDSTYSLSSTLTLSKADYEKHKVYACEVTHQGLSSPVTKSFNRGEC
heavy 1: EVQLVQSGAEVKKPGASVKVSCKASGYKFSSYWIEWVKQAPGQGLEWIGEILPGSDTTNYNEKFKDRATFTSDTSINTAYMELSRLRSDDTAVYYCARDRGNYRAWFGYWGQGTLVTVSSASTKGPSVFPLAPSSKSTSGGTAALGCLVKDYFPEPVTVSWNSGALTSGVHTFPAVLQSSGLYSLSSVVTVPSSSLGTQTYICNVNHKPSNTKVDKRVEPKSCDKTGGSEVQLVESGGGLVQPGGSLRLSCVASGDVHKINFLGWYRQAPGKEREKVAHISIGDQTDYADSAKGRFTISRDESKNMVYLQMNSLKPEDTAVYFCRAFSRIYPYDYWGQGTLVTVSSGGGGSTHTCPPCPAPPVAGPSVFLFPPKPKDTLMISRTPEVTCVVVDVKHEDPEVKFNWYVDGVEVHNAKTKPREEQYNSTYRVVSVLTVLHQDWLNGKEYKCKVSNKALPAPIEKTISKAKGQPREPQVCTLPPSREEMTKNQVSLSCAVKGFYPSDIAVEWESNGQPENNYKTTPPVLDSDGSFFLVSKLTVDKSRWQQGNVFSCSVMHEALHNRFTQKSLSLSPGK
heavy 2: EVQLVQSGAEVKKPGASVKVSCKASGYKFSSYWIEWVKQAPGQGLEWIGEILPGSDTTNYNEKFKDRATFTSDTSINTAYMELSRLRSDDTAVYYCARDRGNYRAWFGYWGQGTLVTVSSASTKGPSVFPLAPSSKSTSGGTAALGCLVKDYFPEPVTVSWNSGALTSGVHTFPAVLQSSGLYSLSSVVTVPSSSLGTQTYICNVNHKPSNTKVDKRVEPKSCDKTGGSEVQLLESGGGLVQPGGSLRLSCAASGFTFDDYAIGWFRQAPGKEREGVSCIRVSDGSTYYADSVKGRFTISRDNSKNTLYLQMNSLRAEDTAVYYCAAGSLYTCVQSIVWPARPYYDMDYWGQGTLVTVSSGGGGSTHTCPPCPAPPVAGPSVFLFPPKPKDTLMISRTPEVTCVVVDVKHEDPEVKFNWYVDGVEVHNAKTKPREEQYNSTYRVVSVLTVLHQDWLNGKEYKCKVSNKALPAPIEKTISKAKGQPREPQVYTLPPCREEMTKNQVSLWCLVKGFYPSDIAVEWESNGQPENNYKTTPPVLDSDGSFFLYSKLTVDKSRWQQGNVFSCSVMHEALHNHYTQKSLSLSPGK
notes: also called LRC150016 (LRRC15); LRC150016 engager
With B1, the 50% effective concentration (EC50 (read off the curve)) (commonly the concentration giving half of the maximal effect) is around 2 nM in assay [1] and around 3 nM in assay [2].

B2: LM1653 (other)
light: DVVMTQSPLSLPVTPGEPASISCRSSQSLVHSNRNTYLHWYLQKPGQSPQLLIYKVSNRFSGVPDRFSGSGSGTDFTLKISRVEAEDVGVYYCSQNTHVPPTFGQGTKLEIKRTVAAPSVFIFPPSDEQLKSGTASVVCLLNNFYPREAKVQWKVDNALQSGNSQESVTEQDSKDSTYSLSSTLTLSKADYEKHKVYACEVTHQGLSSPVTKSFNRGEC
heavy 1: QVQLVQSGAEVKKPGASVKVSCKASGYTFTDYEMHWVRQAPGQGLEWMGALDPKTGDTAYSQKFKGRVTLTADKSTSTAYMELSSLTSEDTAVYYCTRFYSYTYWGQGTLVTVSSASTKGPSVFPLAPSSKSTSGGTAALGCLVKDYFPEPVTVSWNSGALTSGVHTFPAVLQSSGLYSLSSVVTVPSSSLGTQTYICNVNHKPSNTKVDKRVEPKSCDKTGGSEVQLVESGGGLVQPGGSLRLSCVASGDVHKINFLGWYRQAPGKEREKVAHISIGDQTDYADSAKGRFTISRDESKNMVYLQMNSLKPEDTAVYFCRAFSRIYPYDYWGQGTLVTVSSGGGGSTHTCPPCPAPPVAGPSVFLFPPKPKDTLMISRTPEVTCVVVDVKHEDPEVKFNWYVDGVEVHNAKTKPREEQYNSTYRVVSVLTVLHQDWLNGKEYKCKVSNKALPAPIEKTISKAKGQPREPQVCTLPPSREEMTKNQVSLSCAVKGFYPSDIAVEWESNGQPENNYKTTPPVLDSDGSFFLVSKLTVDKSRWQQGNVFSCSVMHEALHNHYTQKSLSLSPGK
heavy 2: QVQLVQSGAEVKKPGASVKVSCKASGYTFTDYEMHWVRQAPGQGLEWMGALDPKTGDTAYSQKFKGRVTLTADKSTSTAYMELSSLTSEDTAVYYCTRFYSYTYWGQGTLVTVSSASTKGPSVFPLAPSSKSTSGGTAALGCLVKDYFPEPVTVSWNSGALTSGVHTFPAVLQSSGLYSLSSVVTVPSSSLGTQTYICNVNHKPSNTKVDKRVEPKSCDKTGGSEVQLLESGGGLVQPGGSLRLSCAASGFTFDDYAIGWFRQAPGKEREGVSCIRVSDGSTYYADSVKGRFTISRDNSKNTLYLQMNSLRAEDTAVYYCAAGSLYTCVQSIVWPARPYYDMDYWGQGTLVTVSSGGGGSTHTCPPCPAPPVAGPSVFLFPPKPKDTLMISRTPEVTCVVVDVKHEDPEVKFNWYVDGVEVHNAKTKPREEQYNSTYRVVSVLTVLHQDWLNGKEYKCKVSNKALPAPIEKTISKAKGQPREPQVYTLPPCREEMTKNQVSLWCLVKGFYPSDIAVEWESNGQPENNYKTTPPVLDSDGSFFLYSKLTVDKSRWQQGNVFSCSVMHEALHNHYTQKSLSLSPGK
notes: also called GPC3 TITAN; LM1653 (GPC3)
As for B2, the 50% effective concentration (EC50) (usually the concentration that produces a half-maximal response) in assay [3] is 2 nM; in assay [7] it was 8 nM. Also, the dissociation constant (Kd) (commonly the concentration at which binding is half-saturated) in assay [4] turned out to be 62.4 nM; in assay [5], 0.67 nM; in assay [6], 0.82 nM; in the assay with recombinant human CD8ab, 82.7 nM. The koff – broadly, the rate constant with which the complex falls apart – in assay [4] was found to be 0.0329 s⁻¹; in assay [5] it was 0.000226 s⁻¹; in assay [6], 0.000267 s⁻¹; with recombinant human CD8ab it was 0.028 s⁻¹. The kon – broadly, the second-order rate constant of association – was 527000 M⁻¹ s⁻¹ in assay [4], 341000 M⁻¹ s⁻¹ in assay [5], 326000 M⁻¹ s⁻¹ in assay [6] and 340000 M⁻¹ s⁻¹ with recombinant human CD8ab.
